Results taken from publication PMC4005675.

How the values were obtained:
[1] = molecular target: full-length ComE^D58E from Streptococcus pneumoniae (Streptococcus pneumoniae strain R6); test: SAXS
[2] = molecular target: isolated REC^D58E domain of ComE (Streptococcus pneumoniae strain R6); test: SEC
[3] = molecular target: isolated REC^D58E domain of ComE (Streptococcus pneumoniae strain R6); test: SAXS

Substance	stoichiometry N [1]	stoichiometry N [2]	stoichiometry N [3]
full-length ComE^D58E from Streptococcus pneumoniae (natural protein)	2		
isolated REC^D58E domain of ComE (domain or fragment)		2	2
